Measured values as given in patent US20220127350A1 (NUMAB THERAPEUTICS, published 2022).
One block for each binder: values may come before it.

Tests used:
[1] = molecular target: T1, human TNFα (human, UniProt P01375 77-233); test: cell-based or functional assay
[2] = molecular target: T2, human serum albumin (human, UniProt P02768 25-609); test: SPR (MASS-1), HSA immobilised, trispecific as analyte, pH 5.5
T2 construct: also called HSA
Description: (§1) The binding to human serum albumin (HSA) and cynomolgus serum albumin (CSA) was assessed for purified trispecific molecules by running SPR spectroscopy on a MASS-1 device (Sierra Sensors). HSA was directly immobilized on a high capacity amine sensor chip (Sierra Sensors) and trispecific molecules were injected as analyte using a dose response multicycle kinetic assay with concentrations of the analyte ranging from 0.35 to 90 nM diluted either in running buffer at pH5.5 or pH7.5. Obtained sensorgrams were fitted using the 1:1 binding model. Affinity to CSA was assessed in a similar approach using a CSA immobilized sensor chip.

[3] = molecular target: T1, human TNFα; test: SPR (summary table), affinity to human TNF
Description: (§2) In this experiment, the biotinylated antigens were captured using the Biotin-CAPture kit from Biacore. After each analyte injection cycle the CAP sensor chip was regenerated and new antigen was captured. Trispecific molecules were injected as analyte using a dose response multicycle kinetic assay with concentrations of the analyte ranging from 0.35 to 90 nM diluted in running buffer. Obtained sensorgrams were fitted using the 1:1 binding model.

[4] = molecular target: T3, human IL-17A (human, UniProt Q16552 24-155); test: SPR (summary table), affinity to human IL-17, capture setup
T3 construct: Recombinant human IL-17A (Peprotech Cat. No. 200-17), disulfide-linked homodimer from E. coli; Biotinylated or RPE-labelled in some assays; also called hIL-17A; IL-17A-RPE (labelled)
Description: as §2

[5] = molecular target: T2, human serum albumin; test: SPR (MASS-1), trispecific immobilised, antigens injected sequentially
Description: (§3) All possible sequences of antigen injection were tested resulting in six possible sequences.
(§4) To evaluate concomitant binding of each antigen to trispecific molecules, the binding level relative to the theoretical Rmax was calculated for each injection using the respective ligand and analyte molecular masses and the immobilization level of the trispecific molecules. The average of the maximum binding relative to theoretical Rmax for each antigen was obtained by averaging individual maximum binding relative to theoretical Rmax obtained for the two injections where the respective antigen was injected as first analyte (in the absence of other bound antigens). Next, the binding relative to the theoretical Rmax of each analyte injection was compared to its average maximum binding to calculate the fraction binding obtained in the presence of other bound antigens. […] The binding levels relative to the theoretical Rmax and the average of maximum binding (binding levels in the absence of other antigens) of each antigen were calculated.

[6] = molecular target: T3, human IL-17A; test: as above
Description: as §3, §4

[7] = molecular target: T1, human TNFα; test: as above
Description: as §3, §4

[8] = molecular target: T3, human IL-17A; test: competitive ELISA: IL-17RA coated, biotinylated IL-17A preincubated with trispecific molecule
Description: (§5) Finally, Tetramethylbenzidine solution was added to develop the plate for 5 to 10 minutes and the reaction was stopped with 1 M HCl. The plate was read at 450 nm and 570 nm (reference wavelength).

[9] = molecular target: T3, human IL-17A; test: competitive ELISA, blocking of IL-17A/IL-17RA interaction (summary table)
Description: as §5

[10] = molecular target: T1, human TNFα; test: cell-based or functional assay; remark: listed apart in the source
[11] = molecular target: T2, human serum albumin; test: SPR (MASS-1), trispecific immobilised, HSA injected as last analyte
Description: as §3, §4

[12] = molecular target: T3, human IL-17A; test: competitive ELISA: biotinylated human IL-17A preincubated with the trispecific molecule, then binding to coated IL-17RA detected (blocked ligand: IL-17RA) [right panel]
[13] = molecular target: T3, human IL-17A; test: SPR (Biacore T200), biotinylated antigen captured (Biotin-CAPture), trispecific as analyte;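 further: multicycle dose-response kinetics, analyte at 0.35–90 nM in running buffer, CAP chip regenerated with fresh antigen each cycle, sensorgrams fitted to a 1:1 binding model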
Description: as §2

[14] = molecular target: T1, human TNFα; test: as above
Description: as §2

[15] = molecular target: T2, human serum albumin; test: SPR (summary table), affinity to HSA at pH 5.5
Description: as §1

[16] = molecular target: T3, human IL-17A; test: cell-based or functional assay
[17] = molecular target: T1, human TNFα; test: cell-based or functional assay; remark: listed apart in the source
[18] = molecular target: T2, human serum albumin; test: SPR (MASS-1), HSA immobilised, trispecific as analyte, pH 7.4
Description: as §1

[19] = molecular target: T4, human IL-17C (human, UniProt Q9P0M4 19-197); test: competition ELISA: scFv A1 coated, binding of biotinylated IL-17A detected, unlabeled IL-17C titrated as competitor [I) B]
T4 sequence: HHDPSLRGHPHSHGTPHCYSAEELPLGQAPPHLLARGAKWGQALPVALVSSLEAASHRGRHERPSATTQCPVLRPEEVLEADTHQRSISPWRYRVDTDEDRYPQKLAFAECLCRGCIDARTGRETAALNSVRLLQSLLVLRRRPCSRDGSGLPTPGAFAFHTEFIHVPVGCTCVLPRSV
Excerpt: (§6) For this purpose, the scFvs were coated on a 96-well ELISA plate.

[20] = molecular target: T5, cynomolgus monkey IL-17A (Macaca fascicularis (cynomolgus monkey)); test: SPR (Biacore T200)
T5 construct: also called cyno IL-17A; cyno IL17A
Description: (§7) After each analyte injection cycle the CAP sensor chip was regenerated and new antigen was captured. The scFvs were injected as analyte using a dose response multi-cycle kinetic assay with concentrations of the analyte ranging from 0.35 to 90 nM diluted in running buffer. Obtained sensorgrams were fitted using the 1:1 binding model. In addition, the scFvs were analyzed in an alternative SPR assay setup (“direct setup”).

[21] = molecular target: T6, human IL-17B (human, UniProt Q9UHF5 21-180); test: competition ELISA: scFv A1 coated, binding of biotinylated IL-17A detected, unlabeled IL-17B titrated as competitor [I) B]
T6 sequence: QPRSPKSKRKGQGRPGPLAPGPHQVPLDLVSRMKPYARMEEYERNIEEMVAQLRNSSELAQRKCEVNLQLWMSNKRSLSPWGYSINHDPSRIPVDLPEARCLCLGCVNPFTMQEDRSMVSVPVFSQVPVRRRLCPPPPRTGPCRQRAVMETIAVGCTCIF
Excerpt: as §6

[22] = molecular target: T7, human IL-17E (human, UniProt Q9H293 33-177); test: competition ELISA: scFv A1 coated, binding of biotinylated IL-17A detected, unlabeled IL-17E titrated as competitor [I) A]
T7 construct: also called IL-25
T7 sequence: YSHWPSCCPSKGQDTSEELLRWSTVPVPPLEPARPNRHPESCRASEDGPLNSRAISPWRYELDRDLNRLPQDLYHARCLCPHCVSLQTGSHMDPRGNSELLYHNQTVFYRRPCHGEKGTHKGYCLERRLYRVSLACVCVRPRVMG
Excerpt: as §6

[23] = molecular target: T8, human IL-17F (human, UniProt Q96PD4 31-163); test: competition ELISA: scFv A1 coated, binding of biotinylated IL-17A detected, unlabeled IL-17F titrated as competitor [I) A]
T8 construct: Peprotech Cat. No. 200-25 in the direct ELISA
T8 sequence: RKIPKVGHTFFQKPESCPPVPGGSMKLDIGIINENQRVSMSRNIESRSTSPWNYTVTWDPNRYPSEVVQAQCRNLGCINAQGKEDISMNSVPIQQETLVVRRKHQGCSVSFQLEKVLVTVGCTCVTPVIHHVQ
Excerpt: as §6

[24] = molecular target: T3, human IL-17A; test: competitive ELISA: IL-17RA coated, biotinylated IL-17A preincubated with scFv
Description: Finally, Tetramethylbenzidin solution (KPL, Cat. No. 53-00-00) was added to develop the plate for 5 to 10 minutes and the reaction was stopped with 1 M HCl. The plate was read using a microtiter plate reader (Infinity reader M200 Pro, Tecan) at a wavelength of 450 nm and 570 nm (reference wavelength).

[25] = molecular target: T3, human IL-17A; test: cell-based or functional assay; remark: listed apart in the source
[26] = molecular target: T3, human IL-17A; test: SPR (Biacore T200), direct setup: IL-17A amine-coupled on CM5, scFv as analyte
Description: as §7

[27] = molecular target: T9, human IL-17D (human, UniProt Q8TAD2 16-202, limits assumed); test: competition ELISA: scFv A1 coated, binding of biotinylated IL-17A detected, unlabeled IL-17D titrated as competitor [I) A]
T9 sequence: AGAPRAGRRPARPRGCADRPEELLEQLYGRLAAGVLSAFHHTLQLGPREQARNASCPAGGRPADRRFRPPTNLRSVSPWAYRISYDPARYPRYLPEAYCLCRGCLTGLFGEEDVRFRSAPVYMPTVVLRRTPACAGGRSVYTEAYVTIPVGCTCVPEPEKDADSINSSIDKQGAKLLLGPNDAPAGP
Excerpt: as §6

[28] = molecular target: T5, cynomolgus monkey IL-17A; test: SPR (Biacore T200), cynomolgus IL-17A, scFv as analyte
Description: as §7

[29] = molecular target: T3, human IL-17A; test: SPR (Biacore T200), capture setup: biotinylated IL-17A captured, scFv as analyte
Description: as §7

potency to neutralize TNFα compared to A7 [1]: ~2 fold
Kd [2]: 0.799 nM
koff [2]: 0.000375 s⁻¹
kon [2]: 469000 M⁻¹ s⁻¹
Kd [3]: 0.185 nM
Kd [4]: 0.483 nM
antigen binding relative to average maximum binding [5]: ≥ 70%
antigen binding relative to average maximum binding [6]: ≥ 70%
antigen binding relative to average maximum binding [7]: ≥ 70%
rel. IC50 to secukinumab (IC50, secukinumab/IC50, test sample, ng/ml) [8]: 10.2
rel. IC50 (IC50, secukinumab/IC50, test sample, ng/ml) [9]: 10.2
rel. IC50 in L929 assay (IC50, A13/IC50, test sample, nM) [10]: 0.4
relative binding level compared to average maximum binding [11]: ~70%
IC50 (read off the curve) [12]: ~5 ng/mL
Kd [13]: 0.483 nM
koff [13]: 8.36e-05 s⁻¹
kon [13]: 173000 M⁻¹ s⁻¹
Kd [14]: 0.185 nM
koff [14]: 4.06e-05 s⁻¹
kon [14]: 219000 M⁻¹ s⁻¹
Kd [15]: 0.799 nM
rel. IC50 to secukinumab (ng/ml) in HT-29 assay, +HSA [16]: 304
rel. IC50 to secukinumab (ng/ml) in HT-29 assay, -HSA [16]: 44.1
rel. IC50 to A13 (nM) in HT-29 assay, +HSA [17]: 4.6
rel. IC50 to A13 (nM) in HT-29 assay, -HSA [17]: 3.9
Kd [18]: 1.42 nM
koff [18]: 0.00044 s⁻¹
kon [18]: 310000 M⁻¹ s⁻¹
B1: A8 (trispecific scDb-scFv) (other)
chain: DIQMTQSPSSLSASVGDRVTITCQSSESVYSNNQLSWYQQKPGQPPKLLIYDASDLASGVPSRFSGSGSGTDFTLTISSLQPEDFATYYCAGGFSSSSDTAFGGGTKLTVLGGGGGSEVQLVESGGGLVQPGGSLRLSCAASGIDFSTYGISWVRQAPGKGLEWIAYIYPDYGITDYASWVNGRFTISLDNAQNTVYLQMNSLRAEDTAVYYCARSGSYYSRGWGAHYFNLWGQGTLVTVSSGGGGSGGGGSGGGGSGGGGSDIQMTQSPSSLSASVGDRVTINCQASESISSWLAWYQQKPGKRPKLLIYKASTLASGVPSRFSGSGSGTDYTLTISSLQPEDFATYYCQGYYLDSSVDDNVFGGGTKLTVLGGGGGSEVQLVESGGGLVQPGGSLRLSCAASGFSLSSNAMGWVRQAPGKGLEYIGIISVGGFTYYASWAKGRFTISRDNSKNTVYLQMNSLRAEDTATYFCARDRHGGDSSGAFYLWGQGTLVTVSSGGGGSGGGGSDIQMTQSPSSLSASVGDRVTITCQASQTINYWLAWYQQKPGKAPKLLIYRASTLASGVPSRFSGSGSGTDFTLTISSLQPEDFATYYCQNYYYSTSRSYGFGGGTKLTVLGGGGGSGGGGSGGGGSGGGGSEVQLVESGGGLVQPGGSLRLSCAASGFSFSSDYWMCWVRQAPGKGLEWIGCIYAGDVDDTDYASWARGRFTISRDNSKNTVYLQMNSLRAEDTAVYYCARVDGFDITYFDLWGQGTLVTVSS
notes: Single chain
IC50 in L929 assay, cell viability [10]: 0.03 nM

binding result [19]: no binding (tested: about 100000 ng/mL)
KD, cyno/KD, human [20]: 3.66
binding result [21]: no binding (tested: about 100000 ng/mL)
binding result [22]: no binding (tested: about 20000 ng/mL)
binding result [23]: no binding (tested: about 20000 ng/mL)
IC50 [24]: 2 ng/mL
IC50 in HT-29 assay, GRO-α secretion [25]: 0.2 ng/mL
Kd [26]: 0.139 nM
koff [26]: 0.000102 s⁻¹
kon [26]: 737000 M⁻¹ s⁻¹
Kd [28]: 0.905 nM
koff [28]: 0.000261 s⁻¹
kon [28]: 288000 M⁻¹ s⁻¹
Kd [29]: 0.247 nM
koff [29]: 0.000112 s⁻¹
kon [29]: 455000 M⁻¹ s⁻¹
B2: A1 (humanized anti-IL-17A scFv, CDR graft of 27-07-G02) (scFv)
scFv: DIQMTQSPSSLSASVGDRVTITCQASQTINYWLAWYQQKPGKAPKLLIYRASTLASGVPSRFSGSGSGTDFTLTISSLQPEDFATYYCQNYYYSTSRSYGFGGGTKLTVLGGGGGSGGGGSGGGGSGGGGSEVQLVESGGGLVQPGGSLRLSCAASGFSFSSDYWMCWVRQAPGKGLEWIGCIYAGDVDDTDYASWARGRFTISRDNSKNTVYLQMNSLRAEDTAVYYCARVDGFDITYFDLWGQGTLVTVSS
notes: VL-linker-VH; also called 27-07-G02-sc01; 27_07_G02_sc01
binding result [27]: no binding (tested: about 100000 ng/mL on the axis)
